PMC11134719

Experiments:
[1] = target: angiotensin-converting enzyme 2 (ACE2) (human (endogenous in HUVECs and HMEC-1)) (UniProt Q9BYF1)
[2] = target: Toll-like receptor 4 (TLR4) (human (endogenous in HUVECs and HMEC-1)) (UniProt O00206)
Sequence of UniProt O00206 (O00206 24-839): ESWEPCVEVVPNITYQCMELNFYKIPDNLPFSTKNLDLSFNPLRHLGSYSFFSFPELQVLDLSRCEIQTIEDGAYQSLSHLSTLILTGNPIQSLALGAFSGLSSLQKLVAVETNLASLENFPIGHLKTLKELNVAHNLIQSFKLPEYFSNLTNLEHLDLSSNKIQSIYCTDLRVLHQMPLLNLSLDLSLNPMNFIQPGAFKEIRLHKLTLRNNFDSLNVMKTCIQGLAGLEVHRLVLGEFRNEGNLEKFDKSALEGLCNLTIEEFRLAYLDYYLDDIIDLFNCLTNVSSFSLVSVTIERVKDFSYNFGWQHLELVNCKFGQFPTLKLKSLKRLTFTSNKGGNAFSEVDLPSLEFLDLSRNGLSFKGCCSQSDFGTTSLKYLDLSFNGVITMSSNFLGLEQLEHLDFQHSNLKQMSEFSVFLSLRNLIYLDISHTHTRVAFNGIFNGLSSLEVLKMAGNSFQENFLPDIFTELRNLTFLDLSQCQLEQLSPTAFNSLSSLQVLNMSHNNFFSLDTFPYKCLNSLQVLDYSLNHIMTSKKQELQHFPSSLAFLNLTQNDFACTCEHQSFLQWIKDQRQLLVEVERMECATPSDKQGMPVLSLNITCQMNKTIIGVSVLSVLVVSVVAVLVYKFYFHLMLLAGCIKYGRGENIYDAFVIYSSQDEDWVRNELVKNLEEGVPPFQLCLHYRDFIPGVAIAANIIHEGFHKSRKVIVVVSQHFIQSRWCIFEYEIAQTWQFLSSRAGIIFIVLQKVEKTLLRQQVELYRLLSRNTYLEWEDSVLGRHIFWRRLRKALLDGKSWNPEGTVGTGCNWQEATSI

Sequence of UniProt Q9BYF1 (Q9BYF1 18-805): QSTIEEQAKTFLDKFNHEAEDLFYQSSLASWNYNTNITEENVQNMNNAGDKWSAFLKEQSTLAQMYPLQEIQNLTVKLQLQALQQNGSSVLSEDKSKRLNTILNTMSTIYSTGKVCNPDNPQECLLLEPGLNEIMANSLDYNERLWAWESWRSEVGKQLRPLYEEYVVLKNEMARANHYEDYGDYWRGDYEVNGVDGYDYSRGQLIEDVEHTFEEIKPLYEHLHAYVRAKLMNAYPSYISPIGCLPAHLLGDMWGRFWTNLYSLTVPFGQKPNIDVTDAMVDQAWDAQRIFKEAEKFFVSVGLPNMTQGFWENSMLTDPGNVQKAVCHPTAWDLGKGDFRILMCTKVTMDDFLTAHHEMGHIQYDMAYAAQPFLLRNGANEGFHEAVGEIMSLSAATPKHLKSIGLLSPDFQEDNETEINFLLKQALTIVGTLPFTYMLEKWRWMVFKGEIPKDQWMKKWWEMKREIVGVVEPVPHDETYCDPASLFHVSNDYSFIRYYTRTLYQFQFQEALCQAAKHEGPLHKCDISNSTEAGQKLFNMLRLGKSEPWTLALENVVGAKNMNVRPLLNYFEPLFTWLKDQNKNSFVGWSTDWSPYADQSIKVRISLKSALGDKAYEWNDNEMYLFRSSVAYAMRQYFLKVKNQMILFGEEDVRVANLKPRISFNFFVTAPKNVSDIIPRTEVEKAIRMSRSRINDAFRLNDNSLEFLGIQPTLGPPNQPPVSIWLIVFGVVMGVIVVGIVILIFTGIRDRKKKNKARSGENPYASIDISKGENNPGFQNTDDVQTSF

**Q.** Which decrease of the ACE2 surface protein level (Western blot of the cell surface fraction), 0.5 µg/mL S protein for 48 h [1] does the source give for “2019-nCoV S1 Protein (SARS-CoV-2 Spike protein) (domain or fragment)” here?
**A.** 60%

**Q.** What about the TLR4 surface protein level by Western blot, fold over nontreated endothelial cells, 0.5 µg/mL S protein for 48 h [2] of the same substance?
**A.** 1.7 fold

**Q.** And the TLR4 surface protein level by immunostaining, fold over nontreated endothelial cells, 0.5 µg/mL S protein for 48 h [2]?
**A.** 1.4 fold
